Assay results taken from the supplement of paper PMC9170038.

Test system: MS2 coat protein
Assay: apparent KD of MS2 coat protein; designed switch direction (-1 OFF switch, 1 ON switch): -1; higher = weaker reporter binding
Method in brief: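 The reported apparent KD is a per-design median over clusters, from curve fits of normalised cluster fluorescence. Protein titrations used SNAP-549-labelled MS2 coat protein, doubled from 0.7 or 1.5 nM to 3 µM, in Tris-HCl pH 7.5 buffer with KCl, MgCl2, BSA, DTT, tRNA and Tween-20, with no input, 200 uM small-molecule ligand, or an oligonucleotide input. The RNA switches were transcribed on Illumina chips by stalled E. coli RNA polymerase.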

[1] = Eterna round: R95, input ligand: microRNA oligo, concentration not stated
[2] = input ligand: microRNA oligo, concentration not stated
[3] = Eterna round: R95, input ligand: FMN 200 uM
[4] = Eterna round: R95, input ligand: none

Sequence	apparent KD of MS2 coat protein [1] [nM]	apparent KD of MS2 coat protein (input ligand: FMN 200 uM) [nM]	apparent KD of MS2 coat protein [2] [nM]	apparent KD of MS2 coat protein (input ligand: none) [nM]	apparent KD of MS2 coat protein [3] [nM]	apparent KD of MS2 coat protein [4] [nM]
CAACUGUGAGGAUAUGGUGAGUAGUGCCUGAGCGCUGCUCACCAGAAGGCACAUGAGGAUCACCCAUGUAUGAC [JL-ex4-2.02 denovo] (puzzle: Exclusion 4)	38.3					
GUAAAUCAUGUAGGAUAUGCAUAGCAAAGCUAUGCAGAAGGACAUGAGGAUCACCCAUGUCAUUCCGUCUGGAGACAGACGGGA [Mat - Exclusion NG 1 - Mod of JL - D58] (Eterna round: R96, puzzle: Exclusion NG 1)		270	22.5	36.7		
UUGCAGUCGUCAGGAUAUAGUAUUACGGCCUUUUAUUUCUUCAUACAUGAGGAUCACCCAUGUCGCUAGAAGGGAUUAUCGAUU [salish99_ExNG2_r04_105] (Eterna round: R96, puzzle: Exclusion NG 2)		17.8	14.2	22.2		
AGUAACCGUCACGAAAGUGAUGGUUACACAAGCAUAUGUACAUGAGGAUCACCCAUGUCCUCAAUUGCUCGUCUUAU [Sensor 3 - 54] (puzzle: Sensor v3, turn-off variant 2)	250				167	226
CCAAGCUUAUUCAUUAACCACAUGAGGAUCACCCAUGUAUAGGCAAUUAUGACUGGGCAAUGUGGUGCUCGUCUUAU [Sensor-V1 #28] (Eterna round: R97, puzzle: Sensor, turn-off variant 1)		39.5		41.3		
GUGAGGUAAGGAUAUAGGAGAAAAGAUAAGGUAUGAGAGUUCUAGAAGGUACAUGAGGAUCACCCAUGUUAGGG [JR_Exclu4_Sub086] (puzzle: Exclusion 4)	257					
UUUUUCAAGCCAGAUCCUCACAUGAGGAUCACCCAUGUGCUCGUCUGUUUUCGCACUAUCACGUUUGUGAUAGUGCU [Level Boss var2-11] (puzzle: Sensor v3, turn-off variant 1)	17.7				297	307
UUAGCGUAUGUAAGGAUAUGCUGGUCUAAUGAUCAGCAGAAGGUACAUGAGGAUCACCCAUGUGGAUUCGUUAU [Mod of JL 8 - Jieux - Brourd's mod of Exclusion 4] (Eterna round: R97, puzzle: Brourd's mod of Exclusion 4)		327		30		
UGUCUGUCAGGAUAUUCGAGUUCGAGUGAAAGCUUGAGCUUGAAGAAGGGACAUGAGGAUCACCCAUGUGGACG [-28.5, -27.4 kcal, A 27%, 1bis-(ca)1] (Eterna round: R97, puzzle: Exclusion 4)		87.8		50.1		
UUUGUUUAUGUGAGGAUAUACUGUUUGUAUUGAUUGUAGAAGGUACAUGAGGAUCACCCAUGUUUUGUAUUUAU [JR_BME4_Sub035] (puzzle: Brourd's mod of Exclusion 4)	17.7					
UCUCGUUGGCAAGGAUAUCCUACAUUGUUCUGGCCCGGGCAUGCUACAUGAGGAUCACCCAUGUGGGAGAAGGUGCGUCAUUGC [Design 23] (Eterna round: R96, puzzle: Exclusion NG 2)		146	77.4	140		
GGGCUUCAAGUGAGGAUAUCUACGCAGUUGAAGCGAGAGAAGGCACAUGAGGAUCACCCAUGUAUAGAAGAAGA [Rausmausis] (puzzle: Brourd's mod of Exclusion 4)	26.5				116	29.1
UUGUUACAUGAGGAUCACCCAUGUGAGGAUAUGAGGGUUAGCUUAAAUGGGCUGACUUUCAGAAGGCACAUGAA [JR_Ex1_Sub058] (Eterna round: R97, puzzle: Exclusion 1)		327		235		
AUAGCUCGUGUUAGGAUAUCCGCAUAUUUUACAUAGGAGAAGGAACAUGAGGAUCACCCAUGUAAUAGAAAAGA [Maenri] (puzzle: Brourd's mod of Exclusion 4)	101				138	74.7
